Like-named read-outs stand apart in the source and are kept apart here.
Assays:
GI.3 Protruding = GI.3 Protruding (norovirus GI.3); test: ELISA
GI.3 [1] = biological target: GI.3 (norovirus GI.3); test: ELISA
GI.3 [2] = biological target: GI.3 (norovirus GI.3); test: VLP-PGM blockade
GII.6 (AF414410) VLPs [3] = biological target: GII.6 (AF414410) VLPs (norovirus GII.6); test: ELISA
GI.2 (AF435807) VLPs = GI.2 (AF435807) VLPs (norovirus GI.2); test: ELISA
[4] = biological target: T1, GII.4 Sydney 2012 shell (S) domain (UniProt P54635 1-221); test: ELISA
T1 chain: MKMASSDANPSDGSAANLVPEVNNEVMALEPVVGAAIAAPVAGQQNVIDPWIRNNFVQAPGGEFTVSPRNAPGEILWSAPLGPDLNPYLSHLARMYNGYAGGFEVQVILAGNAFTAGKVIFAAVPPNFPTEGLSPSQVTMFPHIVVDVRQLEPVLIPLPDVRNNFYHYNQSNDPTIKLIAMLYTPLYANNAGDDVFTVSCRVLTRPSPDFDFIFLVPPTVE

GII.6 (AF414410) VLPs [5] = biological target: GII.6 (AF414410) VLPs (norovirus GII.6); test: VLP-PGM blockade
GII.13 = GII.13 (norovirus GII.13); test: ELISA
GII.17 = GII.17 (norovirus GII.17); test: ELISA
Protruding domain = test: ELISA
GII.4 Houston 2002 VLP [6] = biological target: T2, GII.4 Houston 2002 VLP (UniProt P54635 1-539); test: VLP blockade
GII.4 Houston 2002 VLP [7] = biological target: T2, GII.4 Houston 2002 VLP; test: ELISA binding
GII.4 Sydney 2012 VLP = GII.4 Sydney 2012 VLP (UniProt P54635 1-538); test: VLP-PGM blockade
[8] = biological target: T1, GII.4 Sydney 2012 shell (S) domain; test: ELISA
[9] = biological target: T3, GII.4 Houston 2002 (ABY27560.1) VLPs (UniProt P54635 1-539); test: VLP blockade
[10] = biological target: T3, GII.4 Houston 2002 (ABY27560.1) VLPs; test: ELISA binding
GII.3 = GII.3 (norovirus GII.3); test: ELISA

B1: 323A (antibody, V domains shown)
VH: QVQLVESGGGVVQPGRSLRLSCAASGFTFSGSSLHWVRQAPGKGLEWVAAISYDGTNTYYADSVKGRFTLSRDNSKNTLYLQMNSLRAEDTAVYYCAKPVLSPFDYWGQGTLVTVSS
VL: QSALTQPASVSGSPGQSITISCTGTSSDVGGYNYVSWYQQHPGKAPKLLIYEVSNRPSGVSRRFSGSKSGNTASLTISGLQAEDEADYYCCSYTSSSTEVFGGGTKLTVL
EC50 (GI.3 Protruding): 7 nM | EC50 (GI.3 [1]): 3 nM | EC50 (GI.3 [2]): 15 nM

B2: NORO-168.2 (antibody, V domains shown)
VH: QVQLVESGGGVVQPGRSLRLSCAASGFTFSSYAMHWVRQAPGKGLEWVAVISYDGSNKYYADSVKGRFTISRDNSKNTLYLQMNSLRAEDTAVYYCARSVIGYYYYGMDVWGQGTLVTVSS
VL: QPVLTQPPSASASLGASVTLTCTLSSGYSNYKVDWYQQRPGKGPRFVMRVGTGGIVGSKGDGIPDRFSVLGSGLNRYLTIKNIQEEDESDYHCGADHGSGILFGGGTKLTVL
EC50 (GII.6 (AF414410) VLPs [3]): 198 nM | EC50 (GI.2 (AF435807) VLPs): 265 nM | EC50 [4]: 78 nM | EC50 (GII.6 (AF414410) VLPs [5]): 7 nM

B3: 156.3 (antibody, V domains shown)
VH: QVQLQQWGAGLLKPSETLSLTCAVYGGSFSGYYWSWIRQPPGKGLEWIGEINHSGSTNYNPSLKSRVTISVDTSKNQFSLKLSSVTAADTAVYYCARGLMDVWGQGTLVTVSS
VL: AIRMTQSPSSFSASTGDRVTITCRASQGISSYLAWYQQKPGKAPKLLIYAASTLQSGVPSRFSGSGSGTDFTLTISCLQSEDFATYYCQQYYSYPRTFGQGTKLEIK
EC50 (GII.13): 54 nM | EC50 (GII.17): 90 nM | EC50 (GI.3 [1]): 47 nM | EC50 (GI.3 [2]): 678 nM

B4: 327A (antibody, V domains shown)
VH: QVQLEVSGGGLVKPGGSLRLSCAASGFTFTDYYMSWIRQAPGKGLEWVAYISGIMSSTKYADSVKGRFTISRDNGKNSVYLQMNSLTAEDTAVYYCARERVEPPSAVTDFWGQGTLVTVSS
VL: QSVLTQSPSVSGAPGQRVTISCTGTSSNIGAGYDVHWYQQFPGTAPKLLISHNTNRPSGVPDRFSGSKSGTSASLAITGLQAEDEADYYCQSFDSSLRGSRVFGGGTKLTVL
EC50 (Protruding domain): 0.5 µg/mL | EC50 (GII.4 Houston 2002 VLP [6]): 2.2 µg/mL | EC50 (GII.4 Houston 2002 VLP [7]): 0.3 µg/mL | EC50 (GII.4 Sydney 2012 VLP): 5 µg/mL

B5: 246A (antibody, V domains shown)
VH: EVHLVESGGGLVKPGGSLRLSCAASGFTFSRYGMHWVRQAPGKGLEWVSSIVIRSDYKYYADSVKGRFTISRDNAKNSLYLQMNSLRADDTAVYYCARDLVEPGITPVGCDYWGRGTLVTVSS
VL: SNELTQAPSVSVSPGQTARITCFGDALANQYSYWYQRKPGQAPVLVIYKDSERPSGIPQRFSASNSGTTVTLTITGVQAEDEADYFCQSADSTGIYKVFGGGTKLTVL
EC50 (Protruding domain): 0.9 µg/mL | EC50 (GII.4 Houston 2002 VLP [6]): 2.1 µg/mL | EC50 (GII.4 Sydney 2012 VLP): 7.4 µg/mL

B6: 232 (antibody, V domains shown)
VH: QVQLKQWGAGLLKSSETLSLTCAFNGNSFGAFYWSWIRLSPGKGLEWIGEVNYLGGADYNPSLKSRVTMSADTSKRQFSLSLKSVTAADTGVYFCARGRPHDYSPGSYSRPRRYYGLDVWGQGTTVTVSS
VL: EIVLTQSPATLSLSPGDSATLSCRASQAVSTTYLAWYQQTRGQAPRLLIHGTYTRAIGIPDKFSGTGSGTDFTLTISGLAPEDFAVYYCQQYSSSPYTFGQGTKIEIT
EC50 (GII.4 Sydney 2012 VLP): 4.4 µg/mL

B7: NORO-202A.1 (antibody, V domains shown)
VH: QVQLVQSGAEVKKPGASVKVSCKASEYTFTGYYLQWVRQAPGHGLEWMGWINPSGGTKYSQKFQGRVTMTRDTSITTVYMELSRLRSDDTAVYYCARDLLRNWGDHDAFDVWGQGTMVTVSS
VL: QSVLTQPPSASETPGQGVTISCSGSSSNIGSNFVCWYQQVPGTAPKLLIYKNNQRPSGVPDRFSGSKSGTSASLAISGLRSEDEADYYCSAWDDSLSGPVFGGGTKLTVL
EC50 [4]: 3 nM | EC50 [8]: 0.2 µg/mL | EC50 [9]: > 100 µg/mL | EC50 [10]: 0.1 µg/mL | EC50 (GII.6 (AF414410) VLPs [5]): 47 nM

B8: 178.6 (antibody, V domains shown)
VH: QVQLVESGGGVVQPGRSLRLSCAASGFTFSTYGMNWVRQAPGRGLEWVADISYDGSNSRYADSVKGRFTISRDNSKNTLSLQMNGLRTEDTAVYYCAKDWYLAMAGAAFDSWGPGTLVTVSS
VL: SSELTQDPVVSVALGQTVRITCQGDSLTTFYASWFQQKPGQAPALVLYGNDNRPSGIPDRFSGSRSGNTASLTITGAQAEDEADYYCNSRDSSGKPSFGGGTKLTVL
EC50 (GI.3 Protruding): 336 nM | EC50 (GII.13): 18 nM | EC50 (GII.17): 16 nM | EC50 (GI.3 [1]): 83 nM | EC50 (GII.3): 29 nM | EC50 (GI.3 [2]): 470 nM

B9: NORO-279A (antibody, V domains shown)
VH: QVQLVESGGGVVQPGRSLRLSCAASGFTFTKYGMHWVRQAPGKGLEWVAFIAYDGSVKYYGDSAKGRFAISRDNPKNTVYLQMNSLRAEDTAVYYCAKVEIHYYSNSLLGMDVWGQGTLVTVSS
VL: QSVLTQPPSASGTPGQRVTISCSGGNSNIGISYVYWYQHLPGTAPKLLISKNNLRPSGVPDRFSASKSGTSASLAISGLRSEDEAEYYCATLDINMTWVFGGGTKLTVL
EC50 (GII.6 (AF414410) VLPs [3]): 14 nM | EC50 [4]: 3 nM | EC50 [8]: 0.4 µg/mL | EC50 [9]: > 100 µg/mL | EC50 [10]: 0.3 µg/mL | EC50 (GII.6 (AF414410) VLPs [5]): 32 nM

B10: 310A (antibody, V domains shown)
VH: EVQLVESGGGLVRPGESLRLSCVASGFSVSDNYMSWVRQAPGKGLQWVSVIYSGGTTFYTDSVKGRFTISRDKSKNTLFLQMNSLRAEDTAVYFCTRDPSQYYDSRGHYYQTFTPSFDSWGQGTLVTVSS
VL: DIQMTQSPSVMSASVGDRVTITCRASQDISDYLAWFQQKPGKVPKRLIYAASSLQNGVPSRFSGSGSGTEFTLTISSLQPEDFATYYCLQHDTYPLTFGGGTKVEIK
EC50 (GI.3 Protruding): 60 nM | EC50 (GII.13): 53 nM | EC50 (GII.17): 40 nM | EC50 (GI.3 [1]): 24 nM | EC50 (GII.3): 15 nM | EC50 (GI.3 [2]): 192 nM

B11: NORO-310A (antibody, V domains shown)
VH: EVQLVESGGGLVRPGESLRLSCVASGFSVSDNYMSWVRQAPGKGLQWVSVIYSGGTTFYTDSVKGRFTISRDKSKNTLFLQMNSLRAEDTAVYFCTRDPSQYYDSRGHYYQTFTPSFDSWGQGTLVTVSS
VL: DIQMTQSPSVMSASVGDRVTITCRASQDISDYLAWFQQKPGKVPKRLIYAASSLQNGVPSRFSGSGSGTEFTLTISSLQPEDFATYYCLQHDTYPLTFGGGTKVEIK
EC50 (GII.6 (AF414410) VLPs [3]): 44 nM | EC50 [4]: 19 nM | EC50 [8]: 1.8 µg/mL | EC50 [9]: > 100 µg/mL | EC50 [10]: 0.6 µg/mL

Source: patent US20210324050A1 (published 2021)
